Source: patent publication US20040121955A1

B1: plasminogen (protein)
chain: EPLDDYVNTQGASLFSVTKKQLGAGSIEECAAKCEEDEEFTCRAFQYHSKEQQCVIMAENRKSSIIIRMRDVVLFEKKVYLSECKTGNGKNYRGTMSKTKNGITCQKWSSTSPHRPRFSPATHPSEGLEENYCRNPDNDPQGPWCYTTDPEKRYDYCDILECEEECMHCSGENYDGKISKTMSGLECQAWDSQSPHAHGYIPSKFPNKNLKKNYCRNPDRELRPWCFTTDPNKRWELCDIPRCTTPPPSSGPTYQCLKGTGENYRGNVAVTVSGHTCQHWSAQTPHTHNRTPENFPCKNLDENYCRNPDGKRAPWCHTTNSQVRWEYCKIPSCDSSPVSTEQLAPTAPPELTPVVQDCYHGDGQSYRGTSSTTTTGKKCQSWSSMTPHRHQKTPENYPNAGLTMNYCRNPDADKGPWCFTTDPSVRWEYCNLKKCSGTEASVVAPPPVVLLPDVETPSEEDCMFGNGKGYRGKRATTVTGTPCQDWAAQEPHRHSIFTPETNPRAGLEKNYCRNPDGDVGGPWCYTTNPRKLYDYCDVPQCAAPSFDCGKPQVEPKKCPGRVVGGCVAHPHSWPWQVSLRTRFGMHFCGGTLISPEWVLTAAHCLEKSPRPSSYKVILGAHQEVNLEPHVQEIEVSRLFLEPTRKDIALLKLSSPAVITDKVIPACLPSPNYVVADRTECFITGWGETQGTFGAGLLKEAQLPVIENKVCNRYEFLNGRVQSTELCAGHLAGGTDSCQGDSGGPLVCFEKDKYILQGVTSWGLGCARPNKPGVYVRVSRFVTWIEGVMRNN

What was measured:
[1] = molecular target: VEGF receptors on bovine aortic endothelial cells; assay: cell-based or functional assay

Chain of rPAI-123, P79335 (P79335 whole entry, looked up): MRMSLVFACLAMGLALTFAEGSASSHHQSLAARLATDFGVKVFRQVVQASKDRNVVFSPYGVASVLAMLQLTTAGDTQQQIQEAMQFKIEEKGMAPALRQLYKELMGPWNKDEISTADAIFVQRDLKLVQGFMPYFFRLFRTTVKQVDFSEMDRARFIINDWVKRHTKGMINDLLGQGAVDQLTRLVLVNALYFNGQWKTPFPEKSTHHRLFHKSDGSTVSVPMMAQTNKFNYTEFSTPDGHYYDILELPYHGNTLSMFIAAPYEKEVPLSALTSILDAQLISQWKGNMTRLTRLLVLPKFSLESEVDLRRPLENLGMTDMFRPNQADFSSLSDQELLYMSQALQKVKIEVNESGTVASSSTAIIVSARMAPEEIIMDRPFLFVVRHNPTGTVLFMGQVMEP
Chain of rPAI-1Δ23, P79335 (P79335 whole entry, looked up, stated change not applied): as the sequence (P79335 whole entry, looked up) above

Row | Molecule | apoptosis (Annexin V) in rPAI-123-treated BAEC versus PAEC [1] | plasminogen cleavage (immunoblot probed for mini-plasminogen) (rPAI-123, P79335) | plasminogen cleavage (immunoblot probed for mini-plasminogen) (rPAI-1Δ23, P79335)
1 | 125I-VEGF (ligand) | 60% |  | 
2 | B1 |  | a distinct plasminogen cleavage product near 50 kDa in all reactions containing the rPAI-123 protein (3, 15 and 30 nM) | the rPAI-1?23 protein did not cleave plasminogen, even when increasing concentrations of the recombinant protein were added
